Consider 14 sequences from the DeepSol protein solubility set.

This series is described as follows: soluble on expression in E. coli; label from the status in PepcDB or PDB records.
As for “MQIQQNNSLIYNTLTKKLSSFIPIKSTRRKLRNHIQYKLEHPKVTNYLSNNYINPFLEGKIPHFDFEKKHYFKNDKIIWQFWYQGKNQASPMIQQCFNSVQSQMKDDYTIIILDKDNIKDYLDFPPFVIEKLENNFFGEKTITFFSDLLRVCLLATYGGIWCDASIFLSSKIPSELCDKDFFTFERSKIKPSKEKLKKFIKSGYFSYGYFNWNDDFKVKMLSSFMIAKTNNTFIQTLKDILMNYWKNEQSSENHYYFILHIIFELLKEHGFVNDIYKNMSDIECHLLQFSAKEKFNSTLWEEIQKQSFLHKLTHFKSIKKDSMIDKIILQSLEHHHHHH”, the “soluble on expression in E. coli” value is “soluble”.

On to “MQIQTPDWVKHAVFYQIFPDRFARSKQPRKRLLQEARWEDWDSMPTLQGYKGGDLWGIMEDLDYIQNLGINAIYFTPIFQSASNHRYHTHDYYQVDPMLGGNEAFKELLDAAHQRNIKVVLDGVFNHSSRGFFFFHDVLENGPHSPWVNWFKIEGWPLSPYNGEFPANYVGWAGNRALPEFNHDNPEVREYIMEIAEYWLKFGIDGWRLDVPFEIKTPGFWQEFRDRTKAINPEAYIVGEVWGDSRQWLDGTQFDGVMNYLFAGPTIAFAAGDRVVLEQVQSRDYQPYPPLFAAEYATKIQEVLQLYPWEIQLTQLNLLASHDTARLMTIAGGDIASVELSTLLLLTFPGAPSIYYGDEVGLPGGIDPDSRRGFPLEANWNQEIFNTHRQLITIRQTYPALRTGDYQVLYAQGQLYLFARTLGTEELIIAINAGTSSATANVDVASLHTQPNKLLYGTAEAEWNGEEGTQQLSLTLPARSGCILGTGD”, for which the “soluble on expression in E. coli” value is listed as “soluble”.

For “MQKFIIHKGIACPLEYANIDTDQIIPKQFLLAVSKQGFGKHLFHDLRYLDDKESVLNMDFNLNKKEYQNSSILVSFENFGSGSSREHAPWALVDYGIRAIIAPSFADIFKNNALGNGLLTIELAKDEVLEIVDELKKSQDKNIEISLLEKRVFFKDKIFSFDLDDFHRICLLEGLDNIALTLKHEAQIKAYEKNSKSFLV”, the “soluble on expression in E. coli” value is reported as “soluble”.

Consider “MQKLTVGLIGNPNSGKTTLFNQLTGARQRVGNWAGVTVERKEGIFATTDHQVTLVDLPGTYSLTTISSQTSLDEQIACHYILSGDADMLINVVDASNLERNLYLTLQLLELGIPCVVALNMLDIAEKQQVRIDIDALAARLGCPVIPLVSTRGRGIEALKIALDRHQANSDLELVHYPQPLLREADLLAQQMSAQIPPRQRRWLGLQMLEGDIYSRAYAGDAADKLDIALANLSDEIDDPALHIADARYQTIAAICDAVSNTLTAEP”, for which the “soluble on expression in E. coli” value is recorded as “soluble”.

Turning to “MQKPSIPKGMRDFSPVEMSRRNYIFDTIREVYELFGFNQIETPTMEMLSTLMGKYGEEGDRLLFKVLNSGDVLADFCAEELAEKNSLRFAAKACEKGLRYDLTVPFARYVVMHRNEINFPFKRYQIQPVWRADRPQKGRYREFYQCDGDVIGSDSLMNEVELIQIISEVFRRLGIRTRILLNNRKILSGIAEVVDEADRLTDITVAIDKLDKIGLDKVNDELRTKGFGEEAIERLRPFIEMKGDNREKLDRLKSALASSETGLKGIEELTYILDKVERVQLHSELMVDISLARGLSYYTGAILEVKALDAEMGSITGGGRYDNLTGIFGLEGMSGVGISFGADRIYDVMMQLDLFPAEKLTGTQLLFVNFSEEDADSLLPLIQKLREQGLRTELYPEPAKIKKQMSYANAANIPYVALVGENERAAGQVNLKNMLTGEQQMLPADAATIVAAIV”, the “soluble on expression in E. coli” value is on record as “not soluble”.

“MQKQNIVILGSTGSIGKSTLSVIENNPQKYHAFALVGGKNVEAMFEQCIKFRPHFAALDDVNAAKILREKLIAHHIPTEVLAGRRAICELAAHPDADQIMASIVGAAGLLPTLSAVKAGKRVLLANKESLVTCGQLFIDAVKNYGSKLLPVDSEHNAIFQSLPPEAQEKIGFCPLSELGVSKIILTGSGGPFRYTPLEQFTNITPEQAVAHPNWSMGKKISVDSATMMNKGLEYIEARWLFNASAEEMEVIIHPQSIIHSMVRYVDGSVITQMGNPDMRTPIAETMAYPHRTFAGVEPLDFFKIKELTFIEPDFNRYPNLKLAIDAFAAGQYATTAMNAANEIAVQAFLDRQIGFMDIAKINSKTIERISPYTIQNIDDVLEIDAQAREIAKTLLRE”: the “soluble on expression in E. coli” value was “not soluble”.

For the sequence “MQLKRVAEAKLPTPLGDFLMVGFEELATGHDHAALVFGDISGKTPVLARVHSECLTGDALFSLRCDCGFQLEAALTHIAEEGRGILIYHRQEGRNIGLLNKIRAYALQDQGYDTVEANHQLGFAADERDFTLCADMFKLLGVDEVRLLTNNPKKVEILTEAGINIVERVPLIVGRNPNNEHYLDTKAAKMGHLLSKLEHHHHHH”, the “soluble on expression in E. coli” value is on record as “soluble”.

Turning to “MQLNSSSFHPHHFTCDTTRYSEEQVACICEALSNDARKLSQFVWTVLERDEMRNNQYILKAQAFLAFHSNNFKELYRIIESHHFASEHHLPLQEWWLNAHYHEAEKIRGRQLGAVGKYRIRRKYPLPRTIWDGEETSYCFRDKSRVLLRDWYCRNSYPSPREKRELAEKTHLTVTQVSNWFKNRRQRDRAGVPEPKDCLKDISEEEDLKLIRKTASKLSNSFHNPSDLSSYSAAAAAATFPGFYMNYNDMMIGAGTSYQSL”, the “soluble on expression in E. coli” value is “not soluble”.

For the sequence “MQLPVMPPVSPMLAKSVTAIPPDASYEPKWDGFRSICFRDGDQVELGSRNERPMTRYFPELVAAIRAELPHRCVIDGEIIIATDHGLDFEALQQRIHPAESRVRMLADRTPASFIAFDLLALGDDDYTGRPFSERRAALVDAVTGSGADADLSIHVTPATTDMATAQRWFSEFEGAGLDGVIAKPPHITYQPDKRVMFKIKHLRTADCVVAGYRVHKSGSDAIGSLLLGLYQEDGQLASVGVIGAFPMAERRRLLTELQPLVTSFDDHPWNWAAHVAGQRTPRKNEFSRWNVGKDLSFVPLRPERVVEVRYDRMEGARFRHTAQFNRWRPDRDPRSCSYAQLERPLTVSLSDIVPGLR”, the “soluble on expression in E. coli” value is on record as “not soluble”.

Turning to “MQLVVARIGRAHGIKGEVTVEVRTDEPELRLGPGAVLATDPASTGPLTIESGRVHSGRLLLRFAGVHDRTGAEALRNTLLIADVDPDERPEDEDEYYDHQLIDLDVVTEDGTEVGRITEISHLPTQDLFVVERPDGSEVYVPFVSEIVTGIDLDAQRAVIDPPPGLIDDRAEIASARDAGAEDAGDEALEHHHHHH”, the “soluble on expression in E. coli” value is recorded as “soluble”.

For the sequence “MQNDNHSTAQPEKDVARLTEEVREAIAHGGDIENAIRNLTLKAMHSNGLDIESLKQIATAVMKGVQEGAQQKMTHAAEQSHAAQSQITQAVVGLDTAFAQLAGASKLALEEAASKAKQFSDSELTKAQADLKDLESVFLDTLKHTATAAQGLIAETLRDMLSHAQHNGTAVGMQLKDTLAVFAHQMASTGRAQFEAGVKLTQTTADLLYKISTGVLSGITSQTNRDDK”, the “soluble on expression in E. coli” value is “not soluble”.

For the sequence “MQNHVISLASAAERRAHIAATFGSRGIPFQFFDALMPSERLEQAMAELVPGLSAHPYLSGVEKACFMSHAVLWEQALDEGLPYIAVFEDDVLLGEGAEQFLAEDTWLEERFDKDSAFIVRLETMFMHVLTSPSGVADYGGRAFPLLESEHCGTAGYIISRKAMRFFLDRFAVLPPERLHPVDLMMFGNPDDREGMPVCQLNPALCAQELHYAKFHDQNSALGSLIEHDRRLNRKQQWRDSPANTFKHRLIRALTKIGREREKRRKRREQTIGKIIVPFQLEHHHHHH”, the “soluble on expression in E. coli” value is “soluble”.

In the case of “MQNQYFTVQENYKERFYQIPKVFFTSENYKNLTNDMKIAYAILRDRLNLSIKNSWVDEDGNIYFVYSNEKLMEILNCKKEKLTKIKKGLENDGLLIQKRRGLNKPNILYLMKPIVTERDIYKIEKEENDVEPYGEKEVRKSNVQKFENRTSRSSKIERPEVRKSNTNDTDFNDIDFNDTENNDMNDLNDIKYKNEISNHSNHSNQFTHNFDDKEMLLQEFPEQLTNYLLKYDYRDLEIIKAVILKAKKSFNSRHEDMHYMLEDIEDEILTSLKRLKKAIHDRGVKGQKETIKSMQAYLMQTILTELEETHALYMRRKNMKQYNIFNQ”, the “soluble on expression in E. coli” value is “soluble”.

For “MQPDLHCRTLAAHTLKHFRALSPLTHCMTNDVVQTFTANTLLALGASPAMVIDPVEARPFAAIANALLINVGTLTASRADAMRAAVESAYDAKTPWTLDPVAVGALEFRRRFCLDLLSLRPAAIRGNASEILALSGMALGGRGVDTTEAALAALPAAQALARQIDCIVVVTGEIDYVTNGQRTLSIPGGDPLMTRIVGTGCALSAVVAASCALPGAALDNVASACCWMKLAGQAAAERSEGPGSFIPAFLDALYHLDVEAANATN”, the “soluble on expression in E. coli” value is “not soluble”.
